B1: TPR t1 (parent)
chain: GACCAAUCUGCCCUCAGAGCUCGAGAACAUCUUCGGAUGCAGAGGAGGCAGGCUUCGGUGGCGCGAUAGCGCCAACGUCCUCAACCUCCAAUGCAUCCCACCACAUGAUGAUGCCUGAAGAGCCUUGGUUUUUUG

Variants of: B1
Test: polymerase ribozyme fitness, log enrichment relative to wild type (log ratio); higher = more active; in vitro selection for triplet polymerase activity
Procedure, shortened: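 Mutant libraries for each subunit of a heterodimeric triplet polymerase ribozyme were made by PCR and then transcribed. Each library underwent one round of in vitro selection in triplicate: annealing with a biotinylated primer, the partner subunit and triplets, frozen incubation at −7 °C, gel excision of extended constructs, streptavidin-bead capture and RT-PCR. Input and output libraries were Illumina-sequenced, and only genotypes with ≥10 input reads and ≥1 read per output were kept. Fitness is the logarithm, base 2, of genotype enrichment over wild-type enrichment, computed from inverse-variance-weighted replicate averages.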

Point of comparison: GACCAAUCUGCCCUCAGAGCUCGAGAACAUCUUCGGCUGCAGAGGAGGCAGGCUUCGGUGGCGUGAUAGCGCCAACGUCCUCAACCACCAAUGCAUCCCACCACAUGAUGAUGCCUUAAGAGCCUUGGUUUUUUG [A37C C64U U87A G117U], “polymerase ribozyme fitness (log ratio)” value -3.55. Against it:
- GACCAAUCUGCCCUCAGAGUUCGAGAACAUCUUCGGAUGCAGAGGAGGCAGGCUUCGGUGGCGCGAUAGCGCCAGCGUCCUCAACCUCCAAUGCAUCCCACCACAUGAUGAUGCCUGAAGAGCCUUGGUUUUUUG [C20U A75G] — higher, -0.924
- GACUAAUCUGCCCUCAGAGCUCGAGAACAUCUUCGGAUGCAGAGCAGGCAGGCUUCGGUGGCGCGAUAGCGCCAACGUCCUCAACCUCCAAUGCAUCCCACCACAUGAUGAUGCCUGAAGAGCCUUGGUUUUUUG [C4U G45C] — higher, -2.12
- GACUAAUCUGCGCUCAGAGCUCGAGAACAUCUUCGGAUGCAGAGGAGGGAGGCUUCGGUGGCGCGAUAGCGCCAACGUCCUCAACCUCCAAUGCUUCCCACCACAUGAUGGUGCCUGAAGAGCCUUGGUUUUUUG [C4U C12G C49G A95U A111G] — higher, -1.16
- GACCAAUCUGCCCUAAGAGCUCGAGAACAUCUUCGGAUGCAGAGGAGGCAGGCUUAGGUGGCGCGAUAGCGCCAACGUCCUCAACCUCCAAUGCAUCCCACCACAUGAUGAUGCCUUAAGAGCCUUGGUUUUUUG [C15A C56A G117U] — higher, 0.157
- GACCAAUGUGCCCUCAGAGCUCGAGAACAUCUUCGGAUGCAGAGGAGGCAGGCUUCGGUGACGCGAUAGCGCCAACGCCCUCAACCUCCAAAGCAUCCCACCACAUGAUGAUGCCUGAAGAGCCUUGGUUUUUUG [C8G G61A U78C U92A] — higher, -3.12
- GACCAAUAUGCACUCAGAGCUCGAGAACAUCUUUGGAUGCAGAGGAGGCAGGCUUGGGUGGCGCGAUAGCGCCAACAUCCUCAACCUCCAAUGCAUCCCACCACAUGAUGAUGCCUGAAGAGCCUUGGUUUUUUG [C8A C12A C34U C56G G77A] — higher, -2.77
- GACGUAUCUGCCCUCAGAGCUCGAGAACAUCUUCGGAUGCAGAGGAGGCAGGCUUCGGUGGCGCGAUAGCGCGAACGUCCUCAACCUCUAAUGCAUCCCAGCACAUGAUGAUGCCUGAAAAGCCUUGGUUUUUUA [C4G A5U C73G C89U C101G G120A G135A] — within 0.2 log units, -3.57
- GACCAAUUUGCCCUCAGAGCUCGAGAACAUCUUCGGAUGCAGAGGAGGCAGGCUUCGGUGGCGCGAUAGCGCCAACGUCCUCAACCUCCAUUGCAUCCCACCACAUGAUGAUGCCUGAAGAGCCUUGGUAUUUUG [C8U A91U U130A] — higher, -1.26
- GACCAAUCUGCCCUCAGAGCUCGAGAACAUCUUCGGAUGCAGAGGAGGCAGGCUUCGGUGGCGCGAUAGCGCCAACGUCCUCAACCUCCAAUGCAUCCCACCACAUAAUGAAGCCUGAAGAGCCUUGGUUUUUUG [G107A U112A] — lower, -5.07
- GACCAAUCUGCCCUCAGAGCUCGAGAACAUCUUAGGAUGCAGAGGAGGCAGGCUUCGGUGGCGCGAUAGCGCCAACGUCCUCAACCUCCAAUGCAUCCCACCCCAUGAUGAUGCCUGAAGAGCCUUGGUUUUUUG [C34A A103C] — lower, -4.26
- GACCAAUCUGCCCUCAGAGCUCGAGAACAUCUUCGGAUGCAGAGGAGGCAGGCUUCGGUGGCGCGAUAGCGUCAACGUCCUCAACCUCCAAUGCAUCCCACCACAUGAUGAUGCCUGAAGAGCCUUGGUUUUUUU [C72U G135U] — higher, -1.38
- GACCAAUCUGCCCUCAGAGCUCGAGAACAUCUUCGGAUGCAGCGGAGGCAGGCUUCGGUGGCACGAUAGCGCCAACGCCCUCAACCUCCAAUGCAUCCCACCAAAUGAUGAUGCCUGAACAGCCUUGGUUUUUUG [A43C G63A U78C C104A G120C] — lower, -6.92
- GACCAAUCUGCCCUCAGAGCUCGCGAACAUCUUCGGAUGCAGAGGAGGCAGGCUUCGGUGGCGCGAUAGCGCCAACGUCCUCAACCUCCAAUGCAUCCCACUACAUGAUGAUGCCUGAAGAGCCUUGGUUUUUUG [A24C C102U] — lower, -6.73
- GAGCAAUCUGCCCUCAGAGCUCGAGAACAUCUUCGGAUGCAGAGGAGGCAGGCUUCGGUGGAGCGAUAGCGCCAACGUCCUGAACCUCCAAUGCAUCCCACCACAUGAUGAUGCCUGAAGAGCCUUGGUUUUUUG [C3G C62A C82G] — lower, -3.81
- GACCAAUCUGCCAUCUGAGCUCGAGAACAUCUUCGGAUGCAGAGGAGGCAGGCUUCGGUGGCGCGAUAGCGCCAACGUCCUCAACCUCCAAUGCAUCCCACCACAUGAUGAUGCCUGAAGAGCCUUGGUUUUUUG [C13A A16U] — higher, -0.236
- GACCAAUCUGCCCUCAGAGUUCGAGAACAUCUUCGGAUGCAGAGGAGGCAGGCUUCGGUGGCGCGAUAGCGCCAACGUCCUCAACCUCCUAUGCAUCCCACCACAUGAUGAUGCCUGAAGAGUCUUGGUUUUUUG [C20U A90U C123U] — higher, -1.5
- GACCAAUCUGCCCUCAGAGCUCGAGAAUAUCUUCGGAUGCAGAGGAAGCAGGCUUCGGUCGCGCGAUAGCGCCAACGUCCUCAACCUCCAAUGCAUCCCACCACAUGAUGAUGCCUGAAGAGCCUUGGUUUUUUG [C28U G47A G60C] — higher, -3.22
- GACCAAUCUGCCCUCAGAGCUCGAGAACAUCUUAGGAUGCAGAGGAGACAGGCUUCGGUGGCGCGAUAGCGCCAACGUCCUCAACCUCCAAUGCAUCCCACCACAUGAUGAUGCCUGAAGAGCCUUGGUUUUUUG [C34A G48A] — higher, -3.24
- GACCUAGCUGCCCUCAGAGCUCGAGAACAUCUUCGGAUGCAGUGGAGGCAGGCUUCGGUGGCGCGAUAGCUCCAACGUCCUCCACCUCCAAUGCAUCCCACCACAUGAUGAUGCCUGAAGAGCCUUGGUUUUUUG [A5U U7G A43U G71U A83C] — higher, -2.36
- GACCAAUCUGCCCUCAGAGCUCGAGGACAUCUUCGGAUGCAGAGGAGGCAGGCUUCGGUGGCGCGAUAGCGCCAACGUCCUCAACCUCCAAUGCAUCCCACCACAUGAUGAUGCCUGAAGAGGGUUGGUUUUUUG [A26G C123G C124G] — higher, 0.832
